Measured values taken from patent US5840283A, “Composition and method for treating diseased nails” (Sorenson Pharmaceutical, Inc., priority 1997, dated 1998).
Structures can show the parent of a compound that is named as a salt. Where two headings read alike, the source gives them in different places.

How the values were obtained:
[1] = assay type: in vitro ADME, human
Procedure: The efficacy of the nail-permeable medication means of the present invention was first evaluated by conducting comparative studies comprising application of a selected drug applied to a human nail in vitro as compared to the application of the nail-permeable medication means containing the same drug applied to a human nail in vitro. Specifically, these tests were conducted using diseased human toenails which were surgically removed from patients as a means of curing the disease condition of the nail.
Each nail was maintained in an environment simulating an in vivo condition. Each nail was maintained suspended on a plastic holder which allowed air to circulate about the nail. Each nail holder was retained in a separate enclosed system the temperature and humidity within which could be carefully regulated to simulate the human body. These artificial in vivo environments provided the diffusion cells in which the studies were conducted.
Human nails were prepared by cleaning and, in some instances, grinding the nail down to establish a more even thickness across the nail. The nails were then hydrated using distilled water to render the nails pliable for placement in the diffusion cell. […] A Teflon® donor compartment 16 was positioned over the nail 12 and the nail saddle 14 was joined to the donor compartment 16 by placement of a silicone sealant about the edges of the nail 12 and donor compartment 16. After the silicone cured, water leakage was tested and the nails were resealed if necessary. […] Attempts were made to use an appropriate size "O" ring 18 to form the seal between the nail saddle 14 and the donor compartment 16.
The cell 10 was used by adding solvent, usually de-ionized water, until the solvent came into contact with the nail. […] When semi-solid treatment formulations were used, excess product was removed from the nail by cleansing with cotton swabs after twenty-four hours and prior to application of another nail treatment or pre-treatment product. Pretreatment products (e.g., hydrating fluid, etc.) and treatment products (i.e., nail-permeable medication means) were changed or supplemented daily throughout the experimental period.
After addition of the pretreatment or treatment product, the opening of the donor cell 10 was occluded with silicone cement/sealant. The possibility of entrapped air at the interface of the receiver solvent and nail was checked daily, as well as at the beginning of the experiment. To control this problem, care was taken to be certain that no bubbles were present at the time solvents were added and the nail placed in the saddle. Bubbles may not be visible after the apparatus is fully assembled. Also, dissolved gases tend to separate into bubbles and rise to the nail/receiver interface during the process.
Ciclopirox olamine (6-Cyclohexyl 1-hydroxy 4-methyl 2(1H)-pyridone, 2-aminoethanol salt [Bertrafen]), an antimycotic drug, was used in the nail-permeable medication means of the invention for the purposes of testing and analysis. Three analytical methods are identified in the literature which appear to be acceptable means of determining drug diffusion rates. One method requires the use of radio-labeled drug, and another method utilizes LC (liquid chromatography) equipment. The third method, described by Belliardo, et al., in "Micro-liquid chromatography method for the determination of ciclopirox olamine after pre-column derivatization in topical formulations" Jr. Chromatography, Vol. 553 (1991), p. 41-5, was the method used here. However, because of lack of access to a micro-LC system, lesser concentrations of ciclopirox olamine (<1-2 μg/ml of diffusion fluid) were unquantifiable. Lesser concentrations were sometimes seen as small irregularities on the HPLC (high-pressure liquid chromatography) tracing, but the identity was not confirmed by computer. […]

T. rubrum = conditions: cited from earlier work
[2] = pilot clinical study in patients with subungual onychomycosis; assay type: in vivo, human; conditions: arm 3; patient's assessment of clinical results 1-5, 5 positive
Description: Patients enrolled in the study were diagnosed with subungual onychomycosis from a positive culture of a target nail. The target nail was that nail most severely involved with symptoms of onychomycosis. […] Patients with a history of non-response to standard antimycotic treatments, or severe abnormalities or deformities of the assessed fingers or toes, were excluded.
The protocol called for an eleven month treatment period.
Patients visited their physicians on a monthly basis for evaluation. Clinical measurements and mycological cultures were taken on alternating visits. Adverse events were defined as any abnormal inflammation of the tissues surrounding the nail from the patient's pretreatment condition and were checked by their physician or reported as they occurred. Patient evaluations of clinical treatment were obtained by a survey of patients. Ease of application, convenience of application, and patient's assessments of the clinical results were rated by patients on a scale of 1 to 5 with 1 indicating visible effect and 5 being positive. In addition, patients were also asked to respond to treatment compliance by reporting the number of days per week which they applied their medication as prescribed.
Therefore, patients treated in arm 3 (antifungal only) of the study were used as the baseline upon which clinical and mycologic results were measured.

[3] = duration of papain activity after mixture with water; assay type: physicochemical; conditions: certain activators present
Description: The nail-permeable medication means also includes a medicament which is especially selected for treatment of a particular disease condition. The concentration of medicament in the nail-permeable means is sufficient to effectively control or eliminate the disease condition. […] It is notable in that respect that many medications have a water base, or have a water component in addition to certain activators (e.g. thiols and mercaptans which include cysteine and a chelating agent, such as EDTA [ethylenediaminetetraacetic acid]) which, when admixed with the enzymatic composition, may begin to degrade the enzyme and/or reduce its effectiveness. However, admixture of a water-based or water-containing medicament with a proteolytic enzyme will typically degrade the enzymatic component slowly enough that significant penetration of the nail still takes place and the medicament is successfully delivered to the disease site. Generally, papain and other proteolytic enzymes are effective for approximately twenty-four hours after mixture with water where certain activators are present. In the absence of such activators, papain may remain active for up to two years.

[4] = cited from earlier work
casein substrate = conditions: cited from earlier work

Cc1cc(C2CCCCC2)n(O)c(=O)c1 [ciclopirox olamine, 6-Cyclohexyl 1-hydroxy 4-methyl 2(1H)-pyridone, 2-aminoethanol salt]
amount of drug diffused compared with soaked nails [1]: less than when the nails were soaked with the papain-plus-activators | diffusion of drug through the nail, control without proteolytic enzyme component [1]: no diffusion of drug through the nail | drug diffusion for the seven-day period [1]: 2 to 6 µg/mL | effect of increasing papain concentration on amount of drug diffused [1]: did not increase the amount of drug diffused | effect of soaking time on amount of drug diffused [1]: the amount of drug that diffused through the treated nails also increased | ANALYSES (ciclopirox diffused through nail) ([1]; pH 10): 0 µg/mL | minimum inhibitory concentration (MIC) (T. rubrum): 10 µg/mL | Results (1-5) [2]: 1

B1: papain: proteolytic enzyme (protein, UniProt P00784 134-345, looked up)
Papain: IPEYVDWRQKGAVTPVKNQGSCGSCWAFSAVVTIEGIIKIRTGNLNEYSEQELLDCDRRSYGCNGGYPWSALQLVAQYGIHYRNTYPYEGVQRYCRSREKGPYAAKTDGVRQVQPYNEGALLYSIANQPVSVVLEAAGKDFQLYRGGIFVGPCGNKVDHAVAAVGYGPNYILIKNSWGTGWGENGYIRIKRGTGNSYGVCGLYTSSFYPVKN
diffusion results by papain concentration [1]: optimal diffusion results | duration of effectiveness after mixture with water [3]: approximately twenty-four

B2: Sigma papain, product no. P4762: Sigma Co., product no. P4762, 2× crystallized, lyophilized powder (protein, UniProt P00784 134-345, looked up)
Papain: IPEYVDWRQKGAVTPVKNQGSCGSCWAFSAVVTIEGIIKIRTGNLNEYSEQELLDCDRRSYGCNGGYPWSALQLVAQYGIHYRNTYPYEGVQRYCRSREKGPYAAKTDGVRQVQPYNEGALLYSIANQPVSVVLEAAGKDFQLYRGGIFVGPCGNKVDHAVAAVGYGPNYILIKNSWGTGWGENGYIRIKRGTGNSYGVCGLYTSSFYPVKN
modifications: lyophilized powder
notes: Sigma Co., product no; P4762, 2× crystallized, lyophilized powder
papain activity ([4]; Sigma product no. P4762, 2× crystallized, lyophilized powder): 16-20 BAEE units/mg

B3: ICN papain 2× crystallized powder: ICN Company papain, 2× crystallized powder (protein, UniProt P00784 134-345, looked up)
Papain: IPEYVDWRQKGAVTPVKNQGSCGSCWAFSAVVTIEGIIKIRTGNLNEYSEQELLDCDRRSYGCNGGYPWSALQLVAQYGIHYRNTYPYEGVQRYCRSREKGPYAAKTDGVRQVQPYNEGALLYSIANQPVSVVLEAAGKDFQLYRGGIFVGPCGNKVDHAVAAVGYGPNYILIKNSWGTGWGENGYIRIKRGTGNSYGVCGLYTSSFYPVKN
modifications: crystallized powder
notes: ICN Company papain, 2× crystallized powder
papain activity ([4]; ICN papain forms): 10-20 BAEE Units of activity

B4: Marcor papain: Marcor Company (Hackensack, N.J.) papain (protein, UniProt P00784 134-345, looked up)
Papain: IPEYVDWRQKGAVTPVKNQGSCGSCWAFSAVVTIEGIIKIRTGNLNEYSEQELLDCDRRSYGCNGGYPWSALQLVAQYGIHYRNTYPYEGVQRYCRSREKGPYAAKTDGVRQVQPYNEGALLYSIANQPVSVVLEAAGKDFQLYRGGIFVGPCGNKVDHAVAAVGYGPNYILIKNSWGTGWGENGYIRIKRGTGNSYGVCGLYTSSFYPVKN
modifications: commercial Marcor preparation
papain activity (casein substrate; Marcor papain, footnote of EXAMPLE I): 30,000 USP Units/m activity | papain activity (casein substrate; Marcor papain): 30,000 USP units/mg

B5: ICN papain 2× crystallized suspension: ICN Company papain, 2× crystallized suspension form (protein, UniProt P00784 134-345, looked up)
Papain: IPEYVDWRQKGAVTPVKNQGSCGSCWAFSAVVTIEGIIKIRTGNLNEYSEQELLDCDRRSYGCNGGYPWSALQLVAQYGIHYRNTYPYEGVQRYCRSREKGPYAAKTDGVRQVQPYNEGALLYSIANQPVSVVLEAAGKDFQLYRGGIFVGPCGNKVDHAVAAVGYGPNYILIKNSWGTGWGENGYIRIKRGTGNSYGVCGLYTSSFYPVKN
modifications: crystallized suspension
notes: ICN Company papain, 2× crystallized suspension form
papain activity ([4]; ICN papain forms): 15-40 BAEE Units of activity

B6: Sigma papain: papain product of Sigma, approximately eighty percent protein (protein, UniProt P00784 134-345, looked up)
Papain: IPEYVDWRQKGAVTPVKNQGSCGSCWAFSAVVTIEGIIKIRTGNLNEYSEQELLDCDRRSYGCNGGYPWSALQLVAQYGIHYRNTYPYEGVQRYCRSREKGPYAAKTDGVRQVQPYNEGALLYSIANQPVSVVLEAAGKDFQLYRGGIFVGPCGNKVDHAVAAVGYGPNYILIKNSWGTGWGENGYIRIKRGTGNSYGVCGLYTSSFYPVKN
modifications: commercial preparation
notes: papain product of Sigma, approximately eighty percent protein
papain activity ([4]; 25° C., pH 6.2, Sigma papain product): 10-20 BAEE Units per milligram of enzyme-containing material

B7: USP papain: papain of United States Pharmacopeia standard (protein, UniProt P00784 134-345, looked up)
Papain: IPEYVDWRQKGAVTPVKNQGSCGSCWAFSAVVTIEGIIKIRTGNLNEYSEQELLDCDRRSYGCNGGYPWSALQLVAQYGIHYRNTYPYEGVQRYCRSREKGPYAAKTDGVRQVQPYNEGALLYSIANQPVSVVLEAAGKDFQLYRGGIFVGPCGNKVDHAVAAVGYGPNYILIKNSWGTGWGENGYIRIKRGTGNSYGVCGLYTSSFYPVKN
modifications: USP standard
papain activity (casein substrate; USP papain): at least 6,000 USP units per mg
